This test deals with T1, recombinant His6-tagged SPRTN (human, UniProt Q9H040 1-489).
T1 construct: SPRTN metalloprotease, human; The methods of this pull-down are not described; also called purified SPRTN; source: recombinant, purified in house from E. coli
T1 sequence (looked up): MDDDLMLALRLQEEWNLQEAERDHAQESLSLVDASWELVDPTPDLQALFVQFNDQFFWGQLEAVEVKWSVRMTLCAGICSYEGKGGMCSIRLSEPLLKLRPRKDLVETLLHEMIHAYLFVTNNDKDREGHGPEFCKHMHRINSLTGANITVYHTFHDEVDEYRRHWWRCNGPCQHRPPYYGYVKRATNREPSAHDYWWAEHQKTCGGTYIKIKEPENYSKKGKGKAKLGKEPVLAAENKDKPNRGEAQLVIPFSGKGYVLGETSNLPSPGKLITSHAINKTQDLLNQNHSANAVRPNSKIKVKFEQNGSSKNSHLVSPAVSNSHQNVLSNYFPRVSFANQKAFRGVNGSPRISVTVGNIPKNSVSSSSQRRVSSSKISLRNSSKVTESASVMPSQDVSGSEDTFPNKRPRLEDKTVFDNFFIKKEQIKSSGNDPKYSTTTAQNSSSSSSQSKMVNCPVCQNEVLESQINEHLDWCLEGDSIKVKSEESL
Kind of test: pull-down; recombinant His6-tagged SPRTN held on Ni-NTA beads, purified CHK1 co-precipitated; immunoblot. As to conditions: both partners purified. (In general: Immunoblotting shows a protein as a band on a membrane.)

The values that follow come from PMC6637133, “SPRTN protease and checkpoint kinase 1 cross-activation loop safeguards DNA replication” (Nature Communications, 2019).

B1: Purified CHK1 (enzyme, human, UniProt O14757 1-476, looked up)
chain: MAVPFVEDWDLVQTLGEGAYGEVQLAVNRVTEEAVAVKIVDMKRAVDCPENIKKEICINKMLNHENVVKFYGHRREGNIQYLFLEYCSGGELFDRIEPDIGMPEPDAQRFFHQLMAGVVYLHGIGITHRDIKPENLLLDERDNLKISDFGLATVFRYNNRERLLNKMCGTLPYVAPELLKRREFHAEPVDVWSCGIVLTAMLAGELPWDQPSDSCQEYSDWKEKKTYLNPWKKIDSAPLALLHKILVENPSARITIPDIKKDRWYNKPLKKGAKRPRVTSGGVSESPSGFSKHIQSNLDFSPVNSASSEENVKYSSSQPEPRTGLSLWDTSPSYIDKLVQGISFSQPTCPDHMLLNSQLLGTPGSSQNPWQRLVKRMTRFFTKLDADKSYQCLKETCEKLGYQWKKSCMNQVTISTTDRRNNKLIFKVNLLEMDDKILVDFRLSKGDGLEFKRHFLKIKGKLIDIVSSQKIWLPAT
notes: checkpoint kinase 1 (CHK1), human
As to B1, the binding result is “binds”.
